Measurements: patent US20110262424A1 (published 2011)

Experiments:
[1] = biological target: human von Willebrand factor (human) (UniProt P04275); assay: SPR, Biacore 3000, vWF amine-coupled to CM5 chip, global fit to a simple interaction model
[2] = biological target: T1, human von Willebrand factor (human, UniProt P04275 764-2813, limits assumed); assay: as above
T1 construct: The preparation used in the assay is not described; also called vWF
Procedure: The binding of human-cl rhFVIII to human von Willebrand factor was analyzed using surface plasmon resonance with the Biacore 3000 instrument. The recombinant factor VIII products X and Y derived from murine cell lines (murine-cl rhFVIII X and Y) were used as comparators.
The von Willebrand factor was immobilized through primary amines to the carboxymethylated dextran of a CM5 sensor chip. The binding data were globally fit to a simple interaction model yielding kinetic parameters and affinities. The kinetics in binding and affinity to von Willebrand factor were analyzed. Furthermore, a quantitative measure of the capacity of Human-cl rhFVIII to bind to von Willebrand factor in comparison with other recombinant factor VIII products was obtained.

| Kd [1] | koff [1] | kon [1] | Kd [2] | koff [2] | kon [2] | Molecule |
| --- | --- | --- | --- | --- | --- | --- |
| 0.34 nM | 0.00105 s⁻¹ | 3.1e+06 M⁻¹ s⁻¹ | – | – | – | murine-cl rhFVIII Y (recombinant factor VIII product Y derived from a murine cell line) (from UniProt P00451 20-2351) |
| 0.32 nM | 0.00105 s⁻¹ | 3.3e+06 M⁻¹ s⁻¹ | – | – | – | murine-cl rhFVIII X (recombinant factor VIII product X derived from a murine cell line) (from UniProt P00451 20-2351) |
| – | – | – | 0.21 nM | 0.00095 s⁻¹ | 4.5e+06 M⁻¹ s⁻¹ | human cell line recombinant human factor VIII (human-cl rhFVIII), a human B-domain-deleted factor VIII protein produced in the human cell line HEK293F (other, UniProt P00451 20-2351, looked up, B-domain-deleted construct made in HEK293F cells) ATRRYYLGAVELSWDYMQSDLGELPVDARFPPRVPKSFPFNTSVVYKKTLFVEFTDHLFNIAKPRPPWMGLLGPTIQAEVYDTVVITLKNMASHPVSLHAVGVSYWKASEGAEYDDQTSQREKEDDKVFPGGSHTYVWQVLKENGPMASDPLCLTYSYLSHVDLVKDLNSGLIGALLVCREGSLAKEKTQTLHKFILLFAVFDEGKSWHSETKNSLMQDRDAASARAWPKMHTVNGYVNRSLPGLIGCHRKSVYWHVIGMGTTPEVHSIFLEGHTFLVRNHRQASLEISPITFLTAQTLLMDLGQFLLFCHISSHQHDGMEAYVKVDSCPEEPQLRMKNNEEAEDYDDDLTDSEMDVVRFDDDNSPSFIQIRSVAKKHPKTWVHYIAAEEEDWDYAPLVLAPDDRSYKSQYLNNGPQRIGRKYKKVRFMAYTDETFKTREAIQHESGILGPLLYGEVGDTLLIIFKNQASRPYNIYPHGITDVRPLYSRRLPKGVKHLKDFPILPGEIFKYKWTVTVEDGPTKSDPRCLTRYYSSFVNMERDLASGLIGPLLICYKESVDQRGNQIMSDKRNVILFSVFDENRSWYLTENIQRFLPNPAGVQLEDPEFQASNIMHSINGYVFDSLQLSVCLHEVAYWYILSIGAQTDFLSVFFSGYTFKHKMVYEDTLTLFPFSGETVFMSMENPGLWILGCHNSDFRNRGMTALLKVSSCDKNTGDYYEDSYEDISAYLLSKNNAIEPRSFSQNSRHQAYRYRRGEITRTTLQSDQEEIDYDDTISVEMKKEDFDIYDEDENQSPRSFQKKTRHYFIAAVERLWDYGMSSSPHVLRNRAQSGSVPQFKKVVFQEFTDGSFTQPLYRGELNEHLGLLGPYIRAEVEDNIMVTFRNQASRPYSFYSSLISYEEDQRQGAEPRKNFVKPNETKTYFWKVQHHMAPTKDEFDCKAWAYFSDVDLEKDVHSGLIGPLLVCHTNTLNPAHGRQVTVQEFALFFTIFDETKSWYFTENMERNCRAPCNIQMEDPTFKENYRFHAINGYIMDTLPGLVMAQDQRIRWYLLSMGSNENIHSIHFSGHVFTVRKKEEYKMALYNLYPGVFETVEMLPSKAGIWRVECLIGEHLHAGMSTLFLVYSNKCQTPLGMASGHIRDFQITASGQYGQWAPKLARLHYSGSINAWSTKEPFSWIKVDLLAPMIIHGIKTQGARQKFSSLYISQFIIMYSLDGKKWQTYRGNSTGTLMVFFGNVDSSGIKHNIFNPPIIARYIRLHPTHYSIRSTLRMELMGCDLNSCSMPLGMESKAISDAQITASSYFTNMFATWSPSKARLHLQGRSNAWRPQVNNPKEWLQVDFQKTMKVTGVTTQGVKSLLTSMYVKEFLISSSQDGHQWTLFFQNGKVKVFQGNQDSFTPVVNSLDPPLLTRYLRIHPQSWVHQIALRMEVLGCEAQDLY |
